Reference: the supplement of paper PMC10567573

B1: TRIM55 (parent)
chain: ICPICLEMFTKPVVILPCQHNLCR
B2: TRIM63 (parent)
chain: QRITQEQEKKLSFIEALIQQYQEQ

Variants of: B1
Test: protein stability index of a GFP-peptide fusion (GPS, HEK-293T) (PSI 1-6); higher = more stable
Details: c terminus: a fixed tail appended
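Note: lentivirally expressed fusions sorted by FACS into six bins by GFP to DsRed ratio, PSI derived from sequencing read proportions per bin multiplied by bin number.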

Q: With ICPICLEMFTKPVVILPCWHNLCR [Q19W] as the variant, how does the protein stability index read?
A: The protein stability index was 1.61.

Q: Which protein stability index does the source give for ICPICLEMFTKPVVILPCQHNWCR [L22W] here?
A: The protein stability index was 2.44.

Q: Which protein stability index does the source give for ICPICLEMFTKPVVILPCQHNKCR [L22K] here?
A: The protein stability index was 2.38.

Q: With ICPICLEMFTKPVVILPCQHNPCR [L22P] as the variant, how does the protein stability index read?
A: Its protein stability index is 2.29.

Q: Which protein stability index does the source give for ICPICLEMFTKPVVILPCQHNRCR [L22R] here?
A: Its protein stability index is 2.51.

Q: Which protein stability index does the source give for ICPICLEMFTKPVVILPCQHNFCR [L22F] here?
A: The protein stability index was 1.99.

Q: Which protein stability index does the source give for ICPICLEMFTKPVVILPCQHNYCR [L22Y] here?
A: The protein stability index was 2.08.

Q: With ICPICLEMFTKPVVILPCQHNHCR [L22H] as the variant, how does the protein stability index read?
A: The protein stability index was 2.48.

Q: For ICPICLEMFTKPVVILPCQHNACR [L22A], which protein stability index is on record?
A: Its protein stability index is 2.36.

Q: With ICPICLEMFTKPVVILPCQHNQCR [L22Q] as the variant, how does the protein stability index read?
A: The protein stability index was 2.72.

Q: Which protein stability index does the source give for ICPICLEMFTKPVVILPCQHNMCR [L22M] here?
A: Its protein stability index is 3.14.

Q: With ICPICLEMFTKPVVILPCQHNDCR [L22D] as the variant, how does the protein stability index read?
A: The protein stability index was 2.64.

Q: For ICPICLEMFTKPVVILPCQHNTCR [L22T], which protein stability index is on record?
A: The protein stability index was 2.17.

Q: For ICPICLEMFTKPVVILPCQHNGCR [L22G], which protein stability index is on record?
A: Its protein stability index is 2.44.

Q: For ICPICLEMFTKPVVILPCQHNSCR [L22S], which protein stability index is on record?
A: The protein stability index was 2.4.

Q: Which protein stability index does the source give for ICPICLEMFTKPVVILPCQHNNCR [L22N] here?
A: The protein stability index was 2.54.

Q: For ICPICLEMFTKPVVILPCQHNCCR [L22C], which protein stability index is on record?
A: Its protein stability index is 2.04.

Q: For ICPICLEMFTKPVVILPCQHNVCR [L22V], which protein stability index is on record?
A: The protein stability index was 2.55.

Q: With ICPICLEMFTKPVVILPCQHNECR [L22E] as the variant, how does the protein stability index read?
A: Its protein stability index is 2.45.

Q: For ICPICLEMFTKPVVILPCQHNICR [L22I], which protein stability index is on record?
A: The protein stability index was 2.31.

Q: Which protein stability index does the source give for ICPICLEMFTKPVVILPCQHPLCR [N21P] here?
A: Its protein stability index is 2.52.

Q: Which protein stability index does the source give for ICPICLEMFTKPVVILPCQHWLCR [N21W] here?
A: Its protein stability index is 2.19.

Q: Which protein stability index does the source give for ICPICLEMFTKPVVILPCQHCLCR [N21C] here?
A: The protein stability index was 2.2.

Q: With ICPICLEMFTKPVVILPCQHRLCR [N21R] as the variant, how does the protein stability index read?
A: The protein stability index was 2.31.

Q: For ICPICLEMFTKPVVILPCQHDLCR [N21D], which protein stability index is on record?
A: The protein stability index was 2.23.

Q: Which protein stability index does the source give for ICPICLEMFTKPVVILPCQHILCR [N21I] here?
A: The protein stability index was 2.04.

Q: For ICPICLEMFTKPVVILPCQHHLCR [N21H], which protein stability index is on record?
A: Its protein stability index is 2.39.

Q: With ICPICLEMFTKPVVILPCQHLLCR [N21L] as the variant, how does the protein stability index read?
A: Its protein stability index is 2.01.

Q: For ICPICLEMFTKPVVILPCQHSLCR [N21S], which protein stability index is on record?
A: Its protein stability index is 2.93.

Q: For ICPICLEMFTKPVVILPCQHTLCR [N21T], which protein stability index is on record?
A: Its protein stability index is 2.39.

Q: Which protein stability index does the source give for ICPICLEMFTKPVVILPCQHALCR [N21A] here?
A: Its protein stability index is 2.73.

Q: Which protein stability index does the source give for ICPICLEMFTKPVVILPCQHVLCR [N21V] here?
A: Its protein stability index is 2.35.

Q: Which protein stability index does the source give for ICPICLEMFTKPVVILPCQHMLCR [N21M] here?
A: Its protein stability index is 2.29.

Q: For ICPICLEMFTKPVVILPCQHFLCR [N21F], which protein stability index is on record?
A: The protein stability index was 2.53.

Q: Which protein stability index does the source give for ICPICLEMFTKPVVILPCQHYLCR [N21Y] here?
A: The protein stability index was 2.48.

Q: Which protein stability index does the source give for ICPICLEMFTKPVVILPCQHELCR [N21E] here?
A: The protein stability index was 2.54.

Q: For ICPICLEMFTKPVVILPCQHQLCR [N21Q], which protein stability index is on record?
A: Its protein stability index is 2.17.

Q: For ICPICLEMFTKPVVILPCQHGLCR [N21G], which protein stability index is on record?
A: Its protein stability index is 2.71.

Q: With ICPICLEMFTKPVVILPCQHKLCR [N21K] as the variant, how does the protein stability index read?
A: The protein stability index was 1.74.

Q: With ICPICLEMFTKPVVILTCQHNLCR [P17T] as the variant, how does the protein stability index read?
A: The protein stability index was 2.32.

Q: Which protein stability index does the source give for ICPICLEMFTKPVVILSCQHNLCR [P17S] here?
A: The protein stability index was 2.91.

Q: For ICPICLEMFTKPVVILVCQHNLCR [P17V], which protein stability index is on record?
A: The protein stability index was 2.33.

Q: With ICPICLEMFTKPVVILNCQHNLCR [P17N] as the variant, how does the protein stability index read?
A: The protein stability index was 1.86.

Q: Which protein stability index does the source give for ICPICLEMFTKPVVILQCQHNLCR [P17Q] here?
A: The protein stability index was 2.

Q: With ICPICLEMFTKPVVILWCQHNLCR [P17W] as the variant, how does the protein stability index read?
A: The protein stability index was 2.31.

Q: For ICPICLEMFTKPVVILYCQHNLCR [P17Y], which protein stability index is on record?
A: The protein stability index was 1.99.

Q: With ICPICLEMFTKPVVILRCQHNLCR [P17R] as the variant, how does the protein stability index read?
A: Its protein stability index is 2.17.

Variants of: B2
Test: as above
Details: c terminus: a fixed tail appended

Q: Which protein stability index does the source give for QPITQEQEKKLSFIEALIQQYQEQ [R2P] here?
A: The protein stability index was 3.23.

Q: For QHITQEQEKKLSFIEALIQQYQEQ [R2H], which protein stability index is on record?
A: The protein stability index was 2.44.

Q: For QQITQEQEKKLSFIEALIQQYQEQ [R2Q], which protein stability index is on record?
A: Its protein stability index is 2.23.

Q: Which protein stability index does the source give for QCITQEQEKKLSFIEALIQQYQEQ [R2C] here?
A: The protein stability index was 2.85.

Q: Which protein stability index does the source give for QYITQEQEKKLSFIEALIQQYQEQ [R2Y] here?
A: Its protein stability index is 1.75.

Q: Which protein stability index does the source give for QNITQEQEKKLSFIEALIQQYQEQ [R2N] here?
A: The protein stability index was 2.91.

Q: With QSITQEQEKKLSFIEALIQQYQEQ [R2S] as the variant, how does the protein stability index read?
A: The protein stability index was 2.45.

Q: Which protein stability index does the source give for QMITQEQEKKLSFIEALIQQYQEQ [R2M] here?
A: Its protein stability index is 2.48.

Q: For QKITQEQEKKLSFIEALIQQYQEQ [R2K], which protein stability index is on record?
A: Its protein stability index is 2.26.

Q: For QVITQEQEKKLSFIEALIQQYQEQ [R2V], which protein stability index is on record?
A: Its protein stability index is 2.72.

Q: With QAITQEQEKKLSFIEALIQQYQEQ [R2A] as the variant, how does the protein stability index read?
A: Its protein stability index is 2.57.

Q: With QFITQEQEKKLSFIEALIQQYQEQ [R2F] as the variant, how does the protein stability index read?
A: The protein stability index was 2.06.

Q: Which protein stability index does the source give for QEITQEQEKKLSFIEALIQQYQEQ [R2E] here?
A: The protein stability index was 1.88.

Q: For QIITQEQEKKLSFIEALIQQYQEQ [R2I], which protein stability index is on record?
A: Its protein stability index is 1.89.

Q: For QTITQEQEKKLSFIEALIQQYQEQ [R2T], which protein stability index is on record?
A: Its protein stability index is 2.42.

Q: Which protein stability index does the source give for QDITQEQEKKLSFIEALIQQYQEQ [R2D] here?
A: Its protein stability index is 3.23.

Q: For QWITQEQEKKLSFIEALIQQYQEQ [R2W], which protein stability index is on record?
A: The protein stability index was 2.2.

Q: With QLITQEQEKKLSFIEALIQQYQEQ [R2L] as the variant, how does the protein stability index read?
A: The protein stability index was 2.63.

Q: For QGITQEQEKKLSFIEALIQQYQEQ [R2G], which protein stability index is on record?
A: The protein stability index was 2.35.

Q: Which protein stability index does the source give for PRITQEQEKKLSFIEALIQQYQEQ [Q1P] here?
A: The protein stability index was 2.17.

Q: Which protein stability index does the source give for DRITQEQEKKLSFIEALIQQYQEQ [Q1D] here?
A: The protein stability index was 2.32.

Q: With YRITQEQEKKLSFIEALIQQYQEQ [Q1Y] as the variant, how does the protein stability index read?
A: Its protein stability index is 1.95.

Q: For HRITQEQEKKLSFIEALIQQYQEQ [Q1H], which protein stability index is on record?
A: Its protein stability index is 2.84.

Q: With TRITQEQEKKLSFIEALIQQYQEQ [Q1T] as the variant, how does the protein stability index read?
A: The protein stability index was 2.19.

Q: Which protein stability index does the source give for ERITQEQEKKLSFIEALIQQYQEQ [Q1E] here?
A: Its protein stability index is 3.15.

Q: For RRITQEQEKKLSFIEALIQQYQEQ [Q1R], which protein stability index is on record?
A: Its protein stability index is 2.16.

Q: For CRITQEQEKKLSFIEALIQQYQEQ [Q1C], which protein stability index is on record?
A: Its protein stability index is 2.11.

Q: With WRITQEQEKKLSFIEALIQQYQEQ [Q1W] as the variant, how does the protein stability index read?
A: Its protein stability index is 1.95.

Q: For ARITQEQEKKLSFIEALIQQYQEQ [Q1A], which protein stability index is on record?
A: Its protein stability index is 2.3.

Q: With VRITQEQEKKLSFIEALIQQYQEQ [Q1V] as the variant, how does the protein stability index read?
A: Its protein stability index is 1.79.

Q: Which protein stability index does the source give for SRITQEQEKKLSFIEALIQQYQEQ [Q1S] here?
A: Its protein stability index is 2.23.

Q: With FRITQEQEKKLSFIEALIQQYQEQ [Q1F] as the variant, how does the protein stability index read?
A: The protein stability index was 2.91.

Q: With GRITQEQEKKLSFIEALIQQYQEQ [Q1G] as the variant, how does the protein stability index read?
A: The protein stability index was 2.13.

Q: Which protein stability index does the source give for MRITQEQEKKLSFIEALIQQYQEQ [Q1M] here?
A: The protein stability index was 2.36.

Q: For IRITQEQEKKLSFIEALIQQYQEQ [Q1I], which protein stability index is on record?
A: Its protein stability index is 2.75.

Q: For NRITQEQEKKLSFIEALIQQYQEQ [Q1N], which protein stability index is on record?
A: Its protein stability index is 2.31.

Q: Which protein stability index does the source give for LRITQEQEKKLSFIEALIQQYQEQ [Q1L] here?
A: The protein stability index was 2.57.

Q: With KRITQEQEKKLSFIEALIQQYQEQ [Q1K] as the variant, how does the protein stability index read?
A: Its protein stability index is 2.17.

Q: For QRCTQEQEKKLSFIEALIQQYQEQ [I3C], which protein stability index is on record?
A: Its protein stability index is 2.3.

Q: For QRKTQEQEKKLSFIEALIQQYQEQ [I3K], which protein stability index is on record?
A: Its protein stability index is 2.37.

Q: For QRHTQEQEKKLSFIEALIQQYQEQ [I3H], which protein stability index is on record?
A: The protein stability index was 2.54.

Q: With QRETQEQEKKLSFIEALIQQYQEQ [I3E] as the variant, how does the protein stability index read?
A: The protein stability index was 2.45.

Q: With QRDTQEQEKKLSFIEALIQQYQEQ [I3D] as the variant, how does the protein stability index read?
A: The protein stability index was 2.22.

Q: With QRATQEQEKKLSFIEALIQQYQEQ [I3A] as the variant, how does the protein stability index read?
A: Its protein stability index is 2.37.

Q: For QRLTQEQEKKLSFIEALIQQYQEQ [I3L], which protein stability index is on record?
A: Its protein stability index is 2.5.

Q: For QRGTQEQEKKLSFIEALIQQYQEQ [I3G], which protein stability index is on record?
A: The protein stability index was 2.31.

Q: With QRFTQEQEKKLSFIEALIQQYQEQ [I3F] as the variant, how does the protein stability index read?
A: The protein stability index was 2.61.
